Some targets named below: GAL4/HIF 1-813 (human); GAL4/HIF 1-826 (human); GAL4/HIF 526-826 (human); GAL4/HIF 531-584 (human); GAL4/HIF 71-826 (human); GAL4/HIF 776-826 (human); human HIF-1α (human) (UniProt Q16665); GAL4/Arnt 128-603 (UniProt P04386); GAL4/Arnt 128-774 (UniProt P04386).
What all share (assay): cell-based or functional assay
Assay [1] concerns the target GFP-HIF-1α (Aequeora victoria; human) [GFP: P42212].

Chain of human HIF-1α (human) (Q16665 whole entry, the tested form may be a part): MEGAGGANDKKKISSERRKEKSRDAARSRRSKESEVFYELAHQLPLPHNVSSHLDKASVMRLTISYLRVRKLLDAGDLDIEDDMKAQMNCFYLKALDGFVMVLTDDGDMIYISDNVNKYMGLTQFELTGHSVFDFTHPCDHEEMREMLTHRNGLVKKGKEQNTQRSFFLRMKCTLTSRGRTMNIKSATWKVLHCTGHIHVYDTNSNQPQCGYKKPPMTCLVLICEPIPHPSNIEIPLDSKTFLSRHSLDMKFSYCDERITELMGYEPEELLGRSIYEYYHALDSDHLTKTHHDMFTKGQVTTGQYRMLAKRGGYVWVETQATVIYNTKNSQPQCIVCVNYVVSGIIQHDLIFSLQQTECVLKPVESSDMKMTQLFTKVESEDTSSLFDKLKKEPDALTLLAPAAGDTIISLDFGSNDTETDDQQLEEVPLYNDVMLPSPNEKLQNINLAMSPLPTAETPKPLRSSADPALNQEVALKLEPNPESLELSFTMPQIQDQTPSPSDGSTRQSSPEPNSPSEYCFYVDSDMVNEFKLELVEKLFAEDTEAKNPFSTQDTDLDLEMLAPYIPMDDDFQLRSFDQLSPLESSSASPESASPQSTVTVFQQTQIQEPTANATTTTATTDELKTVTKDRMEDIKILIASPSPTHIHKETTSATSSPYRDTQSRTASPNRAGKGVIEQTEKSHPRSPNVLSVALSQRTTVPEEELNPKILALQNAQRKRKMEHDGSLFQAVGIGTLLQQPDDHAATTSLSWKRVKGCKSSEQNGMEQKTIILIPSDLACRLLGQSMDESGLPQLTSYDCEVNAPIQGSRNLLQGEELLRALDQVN

As for “CBP (full-length mouse CBP) (from UniProt P45481 1-2441)”, the GAL4-responsive reporter gene activity in COS7 cells, hypoxia with GAL4/HIF 1-813 (human) came out at 14 fold. In the assay with GAL4/HIF 1-826 (human), this substance showed a GAL4-responsive luciferase reporter gene activity in COS7 cells, hypoxia of 19 fold; a GAL4-responsive luciferase reporter gene activity in COS7 cells, normoxia of 2 to 3 fold; a GAL4-responsive reporter gene activity in COS7 cells, hypoxia of 8 to 10 fold. This substance also registered a GAL4-responsive reporter gene activity in COS7 cells in the assay with GAL4/HIF 526-826 (human) of 7 to 9 fold. The GAL4-responsive reporter gene activity in COS7 cells, hypoxia in the assay with GAL4/HIF 531-584 (human) is 11 fold. In addition, in the assay with GAL4/HIF 71-826 (human), the GAL4-responsive luciferase activity in COS7 cells, hypoxia, against hypoxia without exogenous coactivators is 30 fold. Also, the GAL4-responsive reporter gene activity in COS7 cells with GAL4/HIF 776-826 (human) turned out to be 29 fold. In assay [1], this substance registered an HRE-luciferase reporter gene activity in COS7 cells, hypoxia of 3 fold and an HRE-luciferase reporter gene activity in COS7 cells, hypoxia over normoxia of 15 fold. The substance further displayed a pT81/HRE-luc reporter gene activity in COS7 cells coexpressing HIF-1α and Arnt, hypoxia in the assay with human HIF-1α (human) of 2 to 3 fold.
On to “Ref-1 (from UniProt P27695 1-318) (enzyme)”, for which the GAL4-responsive reporter gene activity in COS7 cells, hypoxia, Ref-1 coexpressed with CBP and SRC-1 was 12 fold in the assay with GAL4/HIF 531-584 (human) and 53 fold with GAL4/HIF 776-826 (human).
The substance TIF2 (from UniProt Q15596 1-1464) gave a pT81/HRE-luc reporter gene activity in COS7 cells coexpressing HIF-1α and Arnt, hypoxia over normoxia with human HIF-1α (human) of 12 fold.
Take “human HIF-1α (from UniProt Q16665 1-826)”: the GAL4-responsive reporter gene activity in COS7 cells, normoxia with GAL4/Arnt 128-603 is 5 fold; in the assay with GAL4/Arnt 128-774, 4 fold.

These data come from US6436654.
